Test results: the RNAGym collection of RNA variant scans (doi:10.1073/pnas.2313332121)
This sample holds only a part of the variants without activity.

B1: TPR 5TU (parent)
chain: GGAUCUUCUCGAUCUAACAAAAAAGACAAAUCUGCCACAAAGCUUGAGAGCAUCUUCGGAUGCAGAGGCGGCAGCCUUCGGUGGCGCGAUAGCGCCAACGUUCUCAACUAUGACACGCAAAACGCGUGCUCCGUUGAAUGGAGUUUAUCAUG

Variants of: B1
Test: polymerase ribozyme fitness, log enrichment relative to wild type (log ratio); higher = more active; in vitro selection for triplet polymerase activity
How it was run: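 A heterodimeric triplet polymerase ribozyme had each of its subunits mutagenized by PCR into a library, which was transcribed. One round of in vitro selection, done in triplicate, annealed each library with a biotinylated primer, its partner subunit and triplets, then incubated it frozen at −7 °C before gel excision of extended constructs, streptavidin-bead capture and RT-PCR. Fitness is the logarithm of genotype enrichment relative to wild-type enrichment, based on Illumina sequencing of inputs and outputs and inverse-variance-weighted replicate averages. A base-2 logarithm is used, and genotypes were kept only with ≥10 input reads and ≥1 read per output.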

Variant	polymerase ribozyme fitness (log ratio)
A39C G88C C108G	≤ -4.2
A39U U77A U78G C85G G86A	≤ -4.2
A39C G70C A97G	≤ -4.2
A39G U144C	-2.67
C38G C96G	-0.167
A39U U104G	-3.71
A40G A98G A113C	≤ -4.2
A37G G50U C72U C105G U139C	≤ -4.2
C38A C95U	-0.419
C38A C95G	-1.41
A39U G46U A47C A52C C87U A98G U104G C114A C125U	≤ -4.2
C38A G59U C85U U90C	≤ -4.2
C38G C87U C125U G141A	-3.12
C38A A64C G88C	≤ -4.2
A39G G58A U145G	-1.12
A39G G84A	-1.84
A40C G68U C99A U130G	≤ -4.2
C38U G83U	-0.752
A40C G141U	1.43
A40C C85U G124U	-0.182
C38U G83A C99G	-3.15
C38U C63U	0.178
C38U A66G	≤ -4.2
A40C C87G G94U C95G C118G	≤ -4.2

Variant	polymerase ribozyme fitness (log ratio)
C38A U61A A97G C123U	-1.68
A37G C87U G136U	-3.7
A37U A49C C95G A97G C108G A138G U146G U151A	≤ -4.2
A39C C108U	-3.8
A39U G84A C123G	-2.9
A39U U127C	-4
A37C G84U	-2.07
A39U G50A G67U G71C G84A	≤ -4.2
A40C G92A A97U	-3.34
A37G G141U U145G	-3.34
C38U C57U C93A A142U	-3.5
A39U A52U G83A U109G	≤ -4.2
C38G U53A G70A G92A A107C	≤ -4.2
C38G G59C C63U G83U U90G G126U	≤ -4.2
A37U G71A C125A	≤ -4.2
C38U A60U A89U	-0.823
A37C U44A C87A G94A U134G G141U	≤ -4.2
C38U U56A A120G G126U U145C U146G	-3.34
C38U A73U A107C C108U A115G	≤ -4.2
A37C U61A	-1.77
C38U U61C C87U C96G G136U	≤ -4.2
C38U A52C U55G U56A A120C A121C	-2.04
C38U C93A	-2.86
C38U A60U	-1.14

Variant	polymerase ribozyme fitness (log ratio)
A37C G84U U127G G128A U134G	≤ -4.2
C38U U61A	-0.395
A37U G65C A110U G136C	≤ -4.2
A39G C57G	-2.43
A39U A110G U148G	-4
A37G C54U C131U	-1.58
A39C G86U A91C A150U	≤ -4.2
A39U C93U U144C	-3.54
A39C G83U A138C	-4.18
A39C A107C G141C	≤ -4.2
C38U A39C G92U	-2.59
A40C A41C C43U U55G C72U C96U A120U G124C	≤ -4.2
A39U A60U G84U	-3.96
A37C G42U G58A C96A G117U U146A	≤ -4.2
A37U A47G U53A G92C A106U A137G G141U	≤ -4.2
C38A U55A C76A	-1.15
A39U C43A U44A U56G G59C G94A C103G U144A	≤ -4.2
C38A G92C C93A C125G	≤ -4.2
A37C G62C G86A C96G C99A	≤ -4.2
A39U A49U G59C C132U U148A	≤ -4.2
A40C A52G	0.882
A37G C85G	-3.97
A39C G80C C85U A89G C116G	≤ -4.2
C38A C75G C96G	≤ -4.2

Variant	polymerase ribozyme fitness (log ratio)
A40C G88A A91G U144G	≤ -4.2
A37U G59A	-0.836
A37G U56A G124C U134A U144A	≤ -4.2
C38A C57U A113U	-1.65
A40C C54U A64U U78A G88C A150G	≤ -4.2
A40C U44A A49C G65A C75G G84U C118U G128U U130C	≤ -4.2
C38U G58C G80A C95A C114G	-3.62
A37U G81U C85U A137C	≤ -4.2
A37C U45G A47C G59A C79G G81C U82C C95U	-4.18
A37U A64G A73G G133U	-4.19
A37G G84U U104G C118G	≤ -4.2
C38U A73G G86A A91U A97G A115C	≤ -4.2
C38G G143C C149U	≤ -4.2
C38A G58A C95G G124C C125U	-1.11
A39U U55G G67C G86U A115C	≤ -4.2
A37G C57G C69A C85U A120U	-3.21
C38U G50U G80C C85U	≤ -4.2
A37U G81A U101C U111A U148G	≤ -4.2
A37U A39G A40U C93U C105G A110U A138U	≤ -4.2
C38U G59U C79G	-3.85
C38A A41C C54A G136U	-4.11
A40G C85A G133U	≤ -4.2
A37U C72A G126C	≤ -4.2
C38U G59C C95U A98U C103G U148G	≤ -4.2

Variant	polymerase ribozyme fitness (log ratio)
A40C U55A G86C A115C	-3.79
A37G G84U G92A U102G G117U G140A U144A	≤ -4.2
A39U U55G G81U C103A	≤ -4.2
C38G A47C	-0.652
A39U G70C G80U C87G C93U U134C	≤ -4.2
C38A C95G G124C	-1.34
C38A U82G A91G A106C A138G	≤ -4.2
A37G U56G G58C G59A C93G C99G C108U	≤ -4.2
C38U A89C C93U G124C	-2.94
C38U A89U C114U	-2.12
C38U A47C U102C A119U	-3.66
A40C C87G C105G	-4.19
C38A U53A C95G A97G C116U	-2.22
C38A U45A C57A C87G U90G A107U	≤ -4.2
C38G G58C G92U C105G U146C	-2.53
A37U A39U A49C G50C G84A A98C G143U	≤ -4.2
A40C C51U U55G G74C A89C G92A	≤ -4.2
A40C U61A	-1.94
C38U C76U U77G G92A C118A C129U	≤ -4.2
A37G G84U	-3.14
A37G U55A C85U C96U A107C C125A U144A A147U	≤ -4.2
A39G U145A	-1.85
A37G C57U G71U G92C C96U A97C A150C U151A	≤ -4.2
A40C C76U G86A A115C U135A A142G	-3.94

Variant	polymerase ribozyme fitness (log ratio)
A39C G65A A66C C85A G88C G140U	≤ -4.2
A40C G83U A119G	-1.55
A39G G48A G59A C96U U102G G128C G141A U144G	≤ -4.2
A37U C96U	-1.52
A39G U56A G94U A120U G141C	-3.09
A39C U78A G84U U90C	≤ -4.2
A39U A73G	-2.4
A37G G136A U146C	-1.88
C38U U90C U109C C116A C125G U146G	≤ -4.2
C38G C85G	-2.66
C38G C69A C85A C96A A97C	-3.84
C38A C131G U146C U151A	≤ -4.2
C38A C51U C95U G124C	-1.51
A39G U53C A91U C95G	≤ -4.2
A40C A47U C85G A89G U148G	≤ -4.2
C38U C85U U127A	-3.87
A37U U53A G68A A98U	≤ -4.2
A37U A40G C76G C93A C103G	≤ -4.2
A39C U61A C87U G94U U101C A147U	≤ -4.2
A40C G62U A97G C116G A122U	-1.6
C38G G50A G58C A60G U145G	≤ -4.2
A39G C54U G74A G88A U90A A137G	≤ -4.2
C38A G80A G94A A97G C99G C131U G133C	≤ -4.2
A37U C57U U101G	-0.608

Variant	polymerase ribozyme fitness (log ratio)
A40C A138G U144G	-3.92
C38A C93U	-1.67
A39U C96U	-2.1
A39U G70A G88A U127A U144A	≤ -4.2
A37U C57G U61A G71U A91G U139G	≤ -4.2
C38G U55G C76A G141A	≤ -4.2
A39G A49G C69U C123G G140C G141U	≤ -4.2
C38A C85U C87U C116A	-0.329
C38U C54U G58C C85U C105G U144C	-2.92
A37U A49C A73U C75G A106C	≤ -4.2
A39C C76A U101G C114U C125G U145G	-3.83
C38U U56A A60G U78A C79G C85A A119C U135G U151A	≤ -4.2
C38G U53A G80A	-2.37
A39G C54G A106U	≤ -4.2
A40G G46U G84U C87U A97U U144A	≤ -4.2
A40C C99U A137U U146A	-4.14
A40C C57A G68A G86U A121U	≤ -4.2
A37U C85G G86A G92C A115G	-3.98
A39C A66C G86U	≤ -4.2
A37G A47C G83U	-4.12
A39C G42U C43A G92U U127A A150G	-4.19
C38G A41U C93G A110C	≤ -4.2
C38G U53A C85U U135A	-1.98
